Measured values as given in patent US20260193293A1 (UNIVERSITY OF COPENHAGEN, published 2026).
Non-standard residues stand in square brackets, D forms with d. 2Nal = N[C@@H](Cc1ccc2ccccc2c1)C(=O)O

Tests used:
[1] = target: T1, native full-length GB1a subunit from mouse brain membrane fraction (mouse, UniProt Q9WV18 20-960); assay: pull-down from mouse brain lysate, immunoblot
T1 construct: Detected by immunoblot after pull-down from brain lysate; also called native GB1a; native SD
Description: Preparation of whole-brain lysates. Dissected adult mouse brains were placed in ice-cold homogenization buffer (320 mM sucrose, 4 mM HEPES, PH 7.5, 1 mM EDTA, 1 mM EGTA, supplemented with complete EDTA-free protease inhibitor mixture (Roche), 1 mL per 100 mg of brain) and homogenized with a glass-Teflon homogenizer (40 passes) on ice. […] The final brain lysates (at 2 mg/mL protein concentration) were directly used for immunoblot analysis (input lanes) or for pull-down experiments.
Pull-down experiments. […] For immunoblotting analysis, proteins were transferred to nitrocellulose membrane (0.2-μm pore size) (iBlot™ 2 Transfer Stacks, nitrocellulose, mini) using iBlot2 (invitrogen) and then probed with the primary antibodies mouse anti-SD clone 43N12 (1:250) or mouse monoclonal to GABAB1 subunit (abcam, 1:500) in combination with secondary peroxidase-coupled sheep anti-mouse IgG antibody (Cytiva, 1:5000).

[2] = target: T2, Sushi domains (SD1/2) protein of the GABAB1a (GB1a) subunit, recombinant; assay: FP competition
T2 construct: domain: Sushi domains (SD1/2); also called SDs; sushi domain 1/2 (SD1/2) protein
T2 sequence (Q9Z0U4 29-158): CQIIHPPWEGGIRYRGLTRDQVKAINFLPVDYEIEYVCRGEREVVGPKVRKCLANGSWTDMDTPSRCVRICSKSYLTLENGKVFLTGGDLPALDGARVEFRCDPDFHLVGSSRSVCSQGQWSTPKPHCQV
Description: Fluorescence polarization (FP). FP assay was employed to determine the binding affinity of peptides in flat bottom black 384-well plates (Corning Life Science) using a Safire2 plate reader (Tecan). All experiments were conducted in 1×PBS (pH 7.4) containing 1% bovine serum albumin (BSA) at rt. The fluorescence polarization values were measured using excitation/emission wavelengths of 530/580 nm. […] For saturation assay, the millipolarization values were measured after mixing of probes with 12 serial 1 to 1 diluted concentrations of Sushi domains (SD1/2) protein. All experiments were performed in triplicate and the data were plotted to the one-site binding model using GraphPad Prism 9 to calculate the Kd of probes. […] The experiments were performed at least in triplicate and the data were fitted to the sigmoidal dose response curve using GraphPad Prism 9 to obtain the IC₅₀ of peptides. The Kᵢ values were calculated according to Nikolovska-Coleska et al³¹⁰.

T1 sequence (Q9WV18 20-960): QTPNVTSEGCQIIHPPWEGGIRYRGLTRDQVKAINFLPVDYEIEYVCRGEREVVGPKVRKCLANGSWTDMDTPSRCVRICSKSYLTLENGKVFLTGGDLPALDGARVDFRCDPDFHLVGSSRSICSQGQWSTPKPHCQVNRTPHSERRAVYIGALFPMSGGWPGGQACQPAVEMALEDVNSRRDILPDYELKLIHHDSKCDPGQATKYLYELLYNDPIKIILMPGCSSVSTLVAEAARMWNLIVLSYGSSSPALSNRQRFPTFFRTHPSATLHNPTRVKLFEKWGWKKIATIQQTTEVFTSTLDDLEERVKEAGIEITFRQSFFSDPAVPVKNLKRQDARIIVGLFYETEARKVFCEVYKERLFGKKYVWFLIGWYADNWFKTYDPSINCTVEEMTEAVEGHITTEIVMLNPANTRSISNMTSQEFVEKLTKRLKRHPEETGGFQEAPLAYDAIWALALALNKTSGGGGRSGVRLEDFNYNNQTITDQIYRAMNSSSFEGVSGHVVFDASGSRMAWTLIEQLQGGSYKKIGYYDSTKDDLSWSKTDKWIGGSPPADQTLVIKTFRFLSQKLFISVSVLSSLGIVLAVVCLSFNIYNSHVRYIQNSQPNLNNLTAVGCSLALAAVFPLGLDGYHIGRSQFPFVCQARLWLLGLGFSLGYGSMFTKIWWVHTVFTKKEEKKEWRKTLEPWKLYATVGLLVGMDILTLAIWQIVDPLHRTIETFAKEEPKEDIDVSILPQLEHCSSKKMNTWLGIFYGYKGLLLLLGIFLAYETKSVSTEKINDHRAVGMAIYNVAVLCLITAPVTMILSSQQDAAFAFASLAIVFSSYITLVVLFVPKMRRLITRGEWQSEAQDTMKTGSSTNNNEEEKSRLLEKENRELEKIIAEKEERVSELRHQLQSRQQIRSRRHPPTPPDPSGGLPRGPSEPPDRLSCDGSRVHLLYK

- binding result [1]: no binding
- Ki [2]: 31 µM
B1: Scr-20, scrambled version of peptide 20 ((2Nala)EDSDDYDDIDDDW) (peptide)
peptide: Ac-[2Nal]EDSDDYDDIDDDW-NH2
SMILES: CC[C@H](C)[C@H](NC(=O)[C@H](CC(=O)O)NC(=O)[C@H](CC(=O)O)NC(=O)[C@H](Cc1ccc(O)cc1)NC(=O)[C@H](CC(=O)O)NC(=O)[C@H](CC(=O)O)NC(=O)[C@H](CO)NC(=O)[C@H](CC(=O)O)NC(=O)[C@H](CCC(=O)O)NC(=O)[C@H](Cc1ccc2ccccc2c1)NC(C)=O)C(=O)N[C@@H](CC(=O)O)C(=O)N[C@@H](CC(=O)O)C(=O)N[C@@H](CC(=O)O)C(=O)N[C@@H](Cc1c[nH]c2ccccc12)C(N)=O
